Laboratory results as given in paper PMC5551698 (The Journal of Cell Biology, 2017).

Molecular target: His-CRMP-1 (human CRMP-1) (human, UniProt Q14194 1-572)
Experiment: pull-down

Chain of His-CRMP-1 (human CRMP-1) (Q14194 whole entry): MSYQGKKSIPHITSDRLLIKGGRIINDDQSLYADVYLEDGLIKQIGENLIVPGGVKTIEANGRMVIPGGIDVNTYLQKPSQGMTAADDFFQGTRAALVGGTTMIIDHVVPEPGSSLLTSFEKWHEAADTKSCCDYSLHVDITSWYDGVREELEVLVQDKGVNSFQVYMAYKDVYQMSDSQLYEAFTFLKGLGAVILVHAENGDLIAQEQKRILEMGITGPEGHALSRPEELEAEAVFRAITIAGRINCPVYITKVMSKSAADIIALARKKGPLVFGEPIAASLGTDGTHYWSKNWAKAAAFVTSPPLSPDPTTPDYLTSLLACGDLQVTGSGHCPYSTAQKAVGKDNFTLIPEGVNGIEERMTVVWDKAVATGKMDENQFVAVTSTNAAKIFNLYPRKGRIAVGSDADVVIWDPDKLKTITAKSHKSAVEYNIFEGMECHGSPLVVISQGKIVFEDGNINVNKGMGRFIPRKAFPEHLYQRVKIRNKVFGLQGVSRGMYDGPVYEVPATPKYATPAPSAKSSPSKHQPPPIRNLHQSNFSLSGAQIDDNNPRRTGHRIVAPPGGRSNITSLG

- Kd: 2000 nM
B1: MBP-EVL (human EVL, full length) (natural protein, UniProt Q9UI08 1-416, looked up)
chain: MSEQSICQARASVMVYDDTSKKWVPIKPGQQGFSRINIYHNTASNTFRVVGVKLQDQQVVINYSIVKGLKYNQATPTFHQWRDARQVYGLNFASKEEATTFSNAMLFALNIMNSQEGGPSSQRQVQNGPSPDEMDIQRRQVMEQHQQQRQESLERRTSATGPILPPGHPSSAASAPVSCSGPPPPPPPPVPPPPTGATPPPPPPLPAGGAQGSSHDESSMSGLAAAIAGAKLRRVQRPEDASGGSSPSGTSKSDANRASSGGGGGGLMEEMNKLLAKRRKAASQSDKPAEKKEDESQMEDPSTSPSPGTRAASQPPNSSEAGRKPWERSNSVEKPVSSILSRTPSVAKSPEAKSPLQSQPHSRMKPAGSVNDMALDAFDLDRMKQEILEEVVRELHKVKEEIIDAIRQELSGISTT
